{
  "source": "paper PMC7347944",
  "key": {"huPrP(23−144) (human) [1]": {"target": "huPrP(23−144) (human) (UniProt P04156)", "experiment": "co-sedimentation"}, "huPrP(23−144) (human) [2]": {"target": "huPrP(23−144) (human) (UniProt P04156)", "experiment": "NMR titration"}},
  "note": "Several values for one entry are separate records, joined by “and”; a condition that tells them apart may be missing. Equal values may be shown once.",
  "data": [
    {"substance": "α-synuclein oligomers (from UniProt P37840 1-140) (complex)", "values": [
      {"measurement": "stoichiometry N (αSyn:huPrP(23−144))", "setting": "huPrP(23−144) (human) [1]", "result": 0.96},
      {"measurement": "stoichiometry N (αSyn:huPrP molar ratio)", "setting": "huPrP(23−144) (human) [2]", "result": "1.45 and 0.92"}
    ]}
  ]
}
